# Laboratory results taken from IntAct's records for PubMed 23949442.
# B1: SNARE-associated protein Snapin (Homo sapiens), O95295 (parent)
# chain: MAGAGSAAVSGAGTPVAGPTGRDLFAEGLLEFLRPAVQQLDSHVHAVRESQVELREQIDNLATELCRINEDQKVALDLDPYVKKLLNARRRVVLVNNILQNAQERLRRLNHSVAKETARRRAMLDSGIYPPGSPGK
# Variants of: B1
# Details: with snp25_rat Snap25, P60881
# Chain of snp25_rat Snap25, P60881 (P60881 whole entry, looked up): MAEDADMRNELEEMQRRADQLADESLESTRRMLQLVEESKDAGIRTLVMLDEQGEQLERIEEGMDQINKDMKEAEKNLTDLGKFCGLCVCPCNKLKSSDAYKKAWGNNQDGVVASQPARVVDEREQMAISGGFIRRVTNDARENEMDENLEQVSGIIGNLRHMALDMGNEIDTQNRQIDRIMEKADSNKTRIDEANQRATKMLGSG
row,Variant,effect of a mutation on the interaction
1,MAGAGSAAVSGAGTPVAGPTGRDLFAEGLLEFLRPAVQQLDSHVHAVRESQVELREQIDNLATELCRINEDQKVALDLDPYVKKLLNARRRVVLVNNILQNAQERLRRLNHSVAKEDARRRAMLDSGIYPPGSPGK [T117D],decreasing interaction
